This is an account of results in patent US20230407373A1 (priority 2020, published 2023).

The experiment concerns SARS-CoV-2 gRNA and sgRNAs. The experiment is classed as binding. The note with it: for target (unweighted spectral count in RNP capture): Probe II capture, LC-MS/MS LFQ; for background (unweighted spectral count in control): no-probe control pull-down, used as background for Probe II.

B1: BICC1 (protein, UniProt Q9H694 1-974, looked up)
Protein bicaudal C homolog 1: MAAQGEPGYLAAQSDPGSNSERSTDSPVPGSEDDLVAGATLHSPEWSEERFRVDRKKLEAMLQAAAEGKGRSGEDFFQKIMEETNTQIAWPSKLKIGAKSKKDPHIKVSGKKEDVKEAKEMIMSVLDTKSNRVTLKMDVSHTEHSHVIGKGGNNIKKVMEETGCHIHFPDSNRNNQAEKSNQVSIAGQPAGVESARVRIRELLPLVLMFELPIAGILQPVPDPNSPSIQHISQTYNISVSFKQRSRMYGATVIVRGSQNNTSAVKEGTAMLLEHLAGSLASAIPVSTQLDIAAQHHLFMMGRNGSNIKHIMQRTGAQIHFPDPSNPQKKSTVYLQGTIESVCLARQYLMGCLPLVLMFDMKEEIEVDPQFIAQLMEQLDVFISIKPKPKQPSKSVIVKSVERNALNMYEARKCLLGLESSGVTIATSPSPASCPAGLACPSLDILASAGLGLTGLGLLGPTTLSLNTSTTPNSLLNALNSSVSPLQSPSSGTPSPTLWAPPLANTSSATGFSAIPHLMIPSTAQATLTNILLSGVPTYGHTAPSPPPGLTPVDVHINSMQTEGKKISAALNGHAQSPDIKYGAISTSSLGEKVLSANHGDPSIQTSGSEQTSPKSSPTEGCNDAFVEVGMPRSPSHSGNAGDLKQMMCPSKVSCAKRQTVELLQGTKNSHLHSTDRLLSDPELSATESPLADKKAPGSERAAERAAAAQQNSERAHLAPRSSYVNMQAFDYEQKKLLATKAMLKKPVVTEVRTPTNTWSGLGFSKSMPAETIKELRRANHVSYKPTMTTTYEGSSMSLSRSNSREHLGGGSESDNWRDRNGIGPGSHSEFAASIGSPKRKQNKSTEHYLSSSNYMDCISSLTGSNGCNLNSSFKGSDLPELFSKLGLGKYTDVFQQQEIDLQTFLTLTDQDLKELGITTFGARRKMLLAISELNKNRRKLFESPNARTSFLEGGASGRLPRQYHSDIASVSGRW
For the molecule B1, the “target (unweighted spectral count in RNP capture)” value is on record as 11 and the “background (unweighted spectral count in control)” value turned out to be 1.

B2: FAM120C (protein, UniProt Q9NX05 1-1096, looked up)
Constitutive coactivator of …: MGVQGFQEFLEKRCPGAVVPVDLLKLARTVSRQQQQQHLHRQLPPTAALAPGAPRAARGSVPLQPPLPPAALGAYSGGAGPTRHHHPAHHFHHHGQAQPGLHPPLPPPPPPQLPGARVLVDAGSALPRLYGGYQTDWVCGGQWNAMLGYLSALCQACAYPGGDGLELVVMFPGGLGKDRLAEWGRRCQAERQTAQLIVGHVGNKGTPPPRAWFLPPACLSHCVRLALIRFRVKVFQSLEDHHLEVVAFFRENGFHGLLAHDSEYALYNIPSYYSSHALKLSWNGKNLTTNQFLMQEVAKQLGLKRMNFPIFAALLGNHILPDEDLAAFHWSLLGPEHPLASLKVRAHQLVLPPCDVVIKAVSEYVSSIKDPSNLDVVGKDVFKQSQSRTEDKIERFKKAVEYYSVTTKLSSLPVGPSFLGFRNNRLGNPPLPRNQVGTISAGKPMFSHQVPQKVKYPPPFPVGPNSSLLFSSHALGESHAFSEDPMLQNSPFANWAVSYDSSASQFPNYLPSKASPPLGPDSSHSSSSDGDEPNGASSDHITEAFHHQPEWGNPNRDRGSWAQPVDTGVSEASLGDGEPHIPSLLSMSTRNHMDITIPPLPPVAPEVLRVAEHRHRRGLMYPYIYHVLTKGEIKIPVCIEDECNMELPPAALLFRSARQYVYGVLFSLAETQRKMERLAMRRRLPVEVPSVILKEWSAYKGKSPQTPELVSALTFREWTCPNLKKLWLGKAVEDKNRRMRAFLACMKSDTPSMLNPANVPTHLLLMCCVLRYMVQWPGGRILHRHELDTFLAQAVSTQLYEPDRLQELKIEKLDARGIQLAALFMSGVDTALFANDACGQPVPWEHCCPWIYFDGKLFQSKLIKAGRERVSLVELCDGQADLATKVEKMRQSILEGVNMNHPPPSALLPSPTFVPPMVPSLYPVSLYSRAMGSMPLPPQGRSRGFAGLHPIPPQGGKLEIAGMVVGQWAGSRSSRGRGSFGMQVVSVGGPGKGHGKEQTGRGSKGHKKGNKQGSSDGVSKSLELHQGRSRSQVNGNSGALIKEEKSDHRLPAPSQCALSRDSNECNNGNRYLPMNNREKNHLQEQKLETVAQRKED
Turning to B2, the “target (unweighted spectral count in RNP capture)” value was 14 and the “background (unweighted spectral count in control)” value is 1.
